Results from PMC6237807.

Assays:
[1] = tested on: HupA, HU-alpha (9 kDa) (Vibrio cholerae A1552 (A1552-TntfoX)); assay: DNA affinity pull-down, LC-MS/MS
[2] = tested on: VCA0767 (TetR family transcriptional regulator, 29 kDa) (Vibrio cholerae A1552 (A1552-TntfoX)); assay: DNA affinity pull-down, LC-MS/MS
[3] = tested on: NdpA nucleoid-associated protein (38 kDa) (Vibrio cholerae A1552 (A1552-TntfoX)); assay: DNA affinity pull-down, LC-MS/MS
[4] = tested on: H-NS (15 kDa) (Vibrio cholerae A1552 (A1552-TntfoX)); assay: DNA affinity pull-down, LC-MS/MS
[5] = molecular target: N-terminally Strep-tagII tagged wild-type QstR (Vibrio cholerae); assay: SEC; analytical SEC, Superdex 200 10/300 GL; 100 mM Tris-HCl pH 8.0, 300 mM NaCl, 1 mM EDTA; 0.5 ml/min; size estimated from a standard curve of protein standards

| Substance | binding signal (total spectra) [1] | binding signal (total spectra) [2] | binding signal (total spectra) [3] | binding signal (total spectra) [4] | stoichiometry N [5] |
| --- | --- | --- | --- | --- | --- |
| comEA pull-down probe | 8 | 5 | 8 | 35 |  |
| N-terminally Strep-tagII tagged wild-type QstR (natural protein) |  |  |  |  | 2 |
| gyrA pull-down probe | 8 | 0 | 6 | 16 |  |
| qstR pull-down probe | 26 | 0 | 10 | 185 |  |
